Laboratory results as given in the DeepSol protein solubility set.

experiment: soluble on expression in E. coli; label from the status in PepcDB or PDB records

Row | Sequence | soluble on expression in E. coli
1 | MSLRPVPSGQDPIKVVHYSDIHVDQLYTEGSNAKCNKPICCRQVKIIRHTHKSWTDFSRPFTENDEPGKTDSPAGPFGEHTCDSPVSLEHSMYQAIKEIVPDASFTIFTGDVVDHSIWNTTWDYNKHQIIESYENMDKHLGIVYGTAGNHESHPTNAYQPSSIGGASSWIYDLLAGAWSRWIGHEAASKAAQIGAYSTKFPHGNLRVISLNTNLYYRGNFWLFQRKMIRDPSKQFDWLIEELHAAEKAGERVYIIGHMPPGDRNAFHDQSNYLNQIVNRYSSTIAAMFFGHTHRDHFQITYSEAPKKSFSNALLTSYVGPSLTPTSGMPSFRVYDVDPITFAVLDATTYSADMNSPTYQTQGPVWKKYYSAKETYGEGHHHHHH | not soluble
2 | MSLKITIYDLAELSGVSASAVSAILNGNWKKRRISAKLAEKVTRIAEEQGYAINRQASMLRSKKSHVIGMIIPKYDNRYFGSIAERFEEMARERGLLPIITCTRRRPELEIEAVKAMLSWQVDWVVATGATNPDKISALCQQAGVPTVNLDLPGSLSPSVISDNYGGAKALTHKILANSARRRGELAPLTFIGGRSSDHNTSERLRGFHDAHRELGLSVPQANILAPGYSKGHVEDCLQERFGSAKTLLQGIFVNSTISLEGVVRWLSQVGLTGSEQPPMGCFDWDPFVYLLGHDIDMVQQDVPAMLDAVFSIIDAGEASQQRIEIPPRLMSSSEGHHHHHH | soluble
3 | MSQMMQMYQQVGPAQFSAMIGQFAPYFASIAPQFVELRPGYAEVTFPKRREVLNHIGTVHAIALCNAAELAAGTMTDASIPAGHRWIPRGMTVEYLAKATGDVRAVADGSQIDWQATGNLVVPVVAYVDDKPVFRAEITMYVSQA | soluble
4 | MAHHHHHHMMGISPEAVLLDFDWTASYVLATDRLSTAAMNRATARTVSMEGGADGADTKPRNSGGGMPLLQLAMDVARVAPPSEVASISPLVSPVSGVRLQLLATASSEMQGGGEGQPAERMLLPNDRLTMELDAESLDALIAALRTAVDGMDSLSGC | not soluble
5 | PKPPYSYIALITMAIRDSAGGRLTLAEINEYLMGKFPFFRGSYTGWRNSVRHNLSLNDCFVKVLRDPSRPWGKDNYWMLNPNSEYTFADGVFRRRRYRLS | soluble
6 | SLIDTHCHLDLYPKPGTVIAEADKRGMFVIAVTTTPKAFLGNIRMTEGKKRIRVAVGLHPELVAERHREVEDVCKLMAKTKYVGEIGIDGSPPHKSSIKLQTEVFARFLTRASELGGKVLSIHSRGAAALVLDEIERNGHGTLPILHWFSGSKQQVERAAKLGCWFSVGPAMLRSRKGRELLASMPRHRLLTETDGPFATDVDRPLMPWDVSMALPAIADVWGTTPVGVDQVVSANFRELINATEQGRAAAKLVGNC | not soluble
7 | MNVSFSTSSLSVSNSRTRLISFRETEHGDQKSSEEWKTSTKLEALGSMEGELAHLLSTCKPETLNHNKTELSGFRNLFARFLRAKPTVDWSKIEPLPEGAIRPYKSLGHVVDKELIASQLRKLVVVKLNGGLGTSMGCKGPKSVISVRNDLTFLDLTMQQIQTLNKTYGVDVPLVLMNSFNTNEDTQKVLKKYANVKVSVHTFSQSQYPRINRETLLPIVKSLEADDNECWYPPGHGNFYEAFHNSGLLDKFLADGKEYCFLSNIDNMGATVDLSILNFVLNPSPDQTAPEFLMEVTDKTRADVKGGTLIQYEGRLMLLEIAQVPKDYVDEFKSISKFRIFNTNNLWAKLDAMRKIVVENKLEMEVIVNPKHLDRGLDVIQLETAAGAAIKSFSGAVGVNVPRSRFLPVKKTSDLLLLMSNLYDIDNGSLTLSHQRSFPTTPLVKLGSSFDKVKDYLGRFNGIPDLLELDHLTVSGDVWFGKDVSLKGTVIIIANHGDRIDIPPGSILENKIVSGNLRILEH | not soluble
8 | MGHHHHHHSHMQSYLPNDTVESGIHPVYFCSTHYIEMLLKAELPLVFSAFHMSGFAPSQICLQWITQCFWNYLDWIEICHYIATCVFLGPDYQVYICIAVFKHLQQDILQHTQTQDLQVFLKEEALHGFRVSDYFEYMEILEQNYRTVLLRDMRNIRLQST | not soluble
9 | MSLIGETINKLKVIKESSKRDKSRCKMYECLCECGEVIIVRSSTLRQGKIKSCGCESNKIHSELMRERNTTHGLSSNPMYQRWLGMKQRCYDVNAINYKNYGGRGIEICEEWKNDFKKFYDYMGDPPNENYQIDRINNDGNYEPGNVKWSTRSENSTNIRKKEGHHHHHH | soluble
10 | EKFPLVLMLEPTHLCNLACSGCGRIREYADTIQQMMSLEECLRSVDECPAPVVTITGGEPFLYTHIYELIPEVLDRGKHVYLCTNGLLLEKALENVKVHPNFYLNVHMDGLEETHDRILERKGTFKVAIEGIRKAKAKGFRVCTNTTIFKDTDLVEIEMLFSLLTDLGVDGILVAPGFDYEAVG | not soluble
11 | MTVPEEAQTLIGKHYRAPDHFLVGREKIREFAVAVKDDHPTHYSEPDAAAAGYPALVAPLTFLAIAGRRVQLEIFTKFNIPINIARVFHRDQKFRFHRPILANDKLYFDTYLDSVIESHGTVLAEIRSEVTDAEGKPVVTSVVTMLGEAAHHEADADATVAAIASILEHHHHHH | soluble
12 | QQKRAFEYEIRFYTGNDPLDVWDRYISWTEQNYPQGGKESNMSTLLERAVEALQGEKRYYSDPRFLNLWLKLGRLCNEPLDMYSYLHNQGIGVSLAQFYISWAEEYEARENFRKADAIFQEGIQQKAEPLERLQSQHRQFQARVSRQTLLALEKEEEEEVFESS | soluble
13 | MSLNIKEASEKSGVSADTIRYYERIGLIPPIHRNESGVRKFGAEDLRWILFTRQMRRAGLSIEALIDYLALFREGEHTLEARAELLKKQRIELKNRIDVMQEALDRLDFKIDNYEGHHHHHH | not soluble
14 | MGSDKIHHHHHHMKGGTEPVETSKMEKAAALLGGMIDLPTIPAVAIQVLSLLDEPEVDVDDVAELVLTDQVMAARVLKMVNSPLYRPATEITSLKGALVYLGLRHIREFILTCSIIQCSEGKDGVLGVKPFWEHSFGVGIVARLIAEKVGYHDTEKAYIGGIIHDIGEVFLSYYMRDEFQKIVDSISDKPHKLVEAEEEFLGTTHCEIGLCIARAWRFPDDYCEVIAHHHAPQEAKNAPRLTAIVNLADLFCNVRQLDYGGKAWVSFSLADEPAWGMLQGPGSRLSELDIERFCYELDDRVEEISELVGNIFKNG | not soluble
15 | MGSDKIHHHHHHMECLLKTTSSVRFGSIHHPCECPANEACPFSIMSLFKRKAASSLETLALAKVGETVRKRLSADPGVYRIPLDDLEIFGVADFFSAEECAKLMAIVDSVARPSPTYSGTDASGRTSYTGDVDPFDPFVLMLQRRIDDLMGIDPSFGETIQGQRYAPGQEFRGHYDHFLPSQPFWDAEQKRGGQRSWTAMAYLNAVEEGGQTEFARVNLSIPPQPGALLIWNNMKPDGTPNANAMHAGMPVVRGTKYVLTKWYRSRPWH | not soluble
16 | MSLYKTADGREIFIVDAHTHFWDGSPENQRNIHGKQFVDCFYAYHSALSPPEEKWEKSRFEKYSEDDIYRDLFVDGPDDMAIIQTTVLGDFYKTGFGCIERSTRMAARNPGRFIVNGAFDPRDGEKALEYIHYMKETHDITGVKLYTAEWHGDSRGWKLTDPAAYKCFELCDKLGIRNMHVHKGPTIIPLSKDSFSVGDVDDAATDFQGLNWIVEHCGLPRLDDFCWIAVQETNVYGGLAVALPFIHTRPRYFAEVIAELLFWLGPDKILFGSDYAIWTPKWLVDRFWNFQIPEDIAAERGVQLTDEIKEKILGLNAARLYGIDVDAKRRDFADHPVLIAAEGHHHHHH | soluble
17 | GPLGSMSGPVPSRARVYTDVNTHRPREYWDYESHVVEWGNQDDYQLVRKLGRGKYSEVFEAINITNNEKVVVKILKPVKKKKIKREIKILENLRGGPNIITLADIVKDPVSRTPALVFEHVNNTDFKQLYQTLTDYDIRFYMYEILKALDYCHSMGIMHRDVKPHNVMIDHEHRKLRLIDWGLAEFYHPGQEYNVRVASRYFKGPELLVDYQMYDYSLDMWSLGCMLASMIFRKEPFFHGHDNYDQLVRIAKVLGTEDLYDYIDKYNIELDPRFNDILGRHSRKRWERFVHSENQHLVSPEALDFLDKLLRYDHQSRLTAREAMEHPYFYTVVKDQARMG | soluble
18 | SKRAATLTDIKHIKQLDLSDHKSLEFARDIFLFSFYMRGMSFIDLAYLRKKDLNSGFVSYSRRKTGKKLIIRWEKQMQEIIDRYGDSETQYLLPIIEREDGTEHRQYRNKMLLVNRKLKKIAARAGLTTPLTMYVARHSWASIAKTKNISIGIISEAMGHDSETTTQIYLSSIQTNQIDNANRN | not soluble
19 | MGSDKIHHHHHHAGELRERVYLQTDKQFYLSGELVWMKFIATDLDQRLSDVSKVGYVELLDSASAVVQARLVLEKGVGDGCLQLPSTLPTGNYRLVAYTRYMRNEGEEVFFEKPLAVVNTFVTNETLLTDTLLPAYSFTRREDPVSVSPDRMTYDTRSGGEIRINGLPPDLQTLSVSIAGIDLYKPSARSGIVDWKQSMPTTGSSPADRKFLAEYEGPILTGKVIDLSTGEPSSKEAVRPLLGFSGGEIRLFGGQLGPAGEVTFFTRHISGTHEIVTVALSPSSSRYRVDIESPYATHPEKELPALRLNPAWQDELVKRSVGLQVLHAYRSDSLVREKAEKPWFQWQPDWSYLLDEYTRFTTMEEVVIEFIPGLRFRKMDGVRRLAVLTEERIGYTIGNSLVLLDGIPITDHEIIFKYDPLKIRKIDVYKGKYVFGGQIFDGIASFSSYEHNYPGLVVDNSTQFFDYEGTQAQRIFYMPAYRTEAEKRSPVPDFRHTLLWRPDIRTNGESSISIPFTTSDLTGDFTITIEGLTQTGEALYATEQFQVK | not soluble
20 | MGSDKIHHHHHHMGYAMRLALIDGEHYPDVNRWALEKLKVDCAVFVGGMEKIGSIRDVERTLSIKLYYDEDIFKALERAIEENEIREVIDLSDEPVLTPEIRFRIASFLLKRGITYIGADFEFKPKEWIKIDVPSINIIGTGKRIGKTAIGGFVGRTLKEEYKVVIVTMGRGGPESPEVIRGDLMEITPEFLVEVSEKGRHAASDHFEDALTAGVATVGCRRCGGGLAGFTFLDVLQKGIEVAKSLNPEIIVFEGSGASFANVLSEGFITVVSALQGKEIKMYLYPLRISLGDLIVVTMADEVKDPGKISSLIKEINPDADIHLTRFSPRLIGNVEGKAVVVTTSTNSAKRVTKELEDRGIDVVGFSGNLANRVKLREELKKVSYDTLIVELKAGAVDVAIKSALRSGKRIVFLDYEPKNIDDKDLRESVKELARRIVNDKGHRKGR | not soluble
21 | MGSDKIHHHHHHMKIDLNADLGEGCASDAELLTLVSSANIACGFHAGDAQIMQACVREAIKNGVAIGAHPSFPDRENFGRSAMQLPPETVYAQTLYQIGALATIARAQGGVMRHVKPHGMLYNQAAKEAQLADAIARAVYACDPALILVGLAGSELIRAGKQYGLTTREEVFADRGYQADGSLVPRSQSGALIENEEQALAQTLEMVQHGRVKSITGEWATVAAQTVCLHGDGEHALAFARRLRSAFAEKGIVVAA | not soluble
22 | MSLKRITMQDIADRLNISKNSVSQALRGKEGVSKETRELVKRVAKEMGYEYPASRAKSRGKPPRQIALIASDRTFSLKFFGEIYLSIEQEALSHGMKLHIQSVNKEQKERLLLPSFIEEKQVDGVIVLSHISTEYIQQIVATGIPTVLVDHHHPNIPADAVLTNNRFGAYVAVQHLLELNHTDIAFVGDVNYSPSYQERYEGYLLALKDYGVKPNEEWMFCQAQEDETVIAGYIRELKRQPTAWFCVNDGLGFFVSTGLQQYGLKVPDDVSVCSFDNGQLSQIATPKITTVDIDLKRYGKRAVELLRWRWDNPNEPFQEVLLSTKLIKRESTAAKPTREGHHHHHH | soluble
